Measurements published in US20250206836A1 (ONA THERAPEUTICS S L, published 2025).
Substitutions are numbered along the chain they refer to. Names and notes keep the numbering of the source. Values belong to the binder of their own block, whether it stands above or below them.

What was measured:
[1] = target: T1, human CD36 (on HEK 293 or SCC25 cells) (human, UniProt P16671 2-472); assay: cell-based or functional assay
[2] = target: T1, human CD36 (on HEK 293 or SCC25 cells); assay: cell-based or functional assay; remark: listed apart in the source
[3] = target: purified biotin-tagged human CD36 (human, UniProt P16671 30-439, limits assumed, biotin tag, site not stated); assay: AlphaScreen competition; competitor 1G04 on acceptor beads;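 note: streptavidin donor beads excited at 680 nm release singlet oxygen, and the light signal needs a nearby acceptor bead, with 30 min donor-bead incubation at 25 °C in the dark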
Chain of purified biotin-tagged human CD36 (P16671 30-439 limits assumed): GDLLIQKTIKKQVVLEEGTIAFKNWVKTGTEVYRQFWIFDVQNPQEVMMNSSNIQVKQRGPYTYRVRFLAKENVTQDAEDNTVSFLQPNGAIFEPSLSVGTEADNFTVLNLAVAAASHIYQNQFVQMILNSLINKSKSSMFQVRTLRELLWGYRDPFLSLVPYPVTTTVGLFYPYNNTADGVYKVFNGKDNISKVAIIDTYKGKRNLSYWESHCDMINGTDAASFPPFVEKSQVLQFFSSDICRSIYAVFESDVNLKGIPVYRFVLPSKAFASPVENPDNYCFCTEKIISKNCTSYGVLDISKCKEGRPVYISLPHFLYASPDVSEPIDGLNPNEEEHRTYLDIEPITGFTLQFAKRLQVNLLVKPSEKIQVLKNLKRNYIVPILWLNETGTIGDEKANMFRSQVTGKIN

[4] = target: T2, nonhuman primate CD36 (on HEK 293 cells) (cynomolgus monkey / rhesus macaque, UniProt P16671 2-472 (human entry)); assay: FACS, HEK 293 cells transiently overexpressing CD36;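 note: antibody binding to transfected cells detected by flow cytometry with a fluorescent anti-human secondary antibody, EC50 from a four-parameter sigmoidal fit of mean fluorescence intensity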
T2 construct: also called non-human primate CD36 (cynomolgus)
T2 sequence (P16671 other isoform, or with tags, fused parts or gaps limits assumed): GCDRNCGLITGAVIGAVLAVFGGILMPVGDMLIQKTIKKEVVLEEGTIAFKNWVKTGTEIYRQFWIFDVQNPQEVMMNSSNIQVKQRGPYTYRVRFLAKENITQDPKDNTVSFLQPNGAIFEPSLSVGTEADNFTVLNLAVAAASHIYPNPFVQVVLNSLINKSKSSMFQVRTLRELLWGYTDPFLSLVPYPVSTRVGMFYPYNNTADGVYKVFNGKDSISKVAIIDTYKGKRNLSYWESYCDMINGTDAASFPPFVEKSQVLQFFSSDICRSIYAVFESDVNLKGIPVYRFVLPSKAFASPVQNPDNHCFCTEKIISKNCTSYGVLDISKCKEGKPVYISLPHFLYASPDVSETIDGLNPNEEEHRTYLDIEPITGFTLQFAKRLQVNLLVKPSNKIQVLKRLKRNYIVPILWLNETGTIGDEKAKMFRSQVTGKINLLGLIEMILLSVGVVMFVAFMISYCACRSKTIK
Method: (§1) After transiently transfecting the HEK 293 cells with a CD36 expression construct, cells were treated with three-fold serial dilution of each candidate antibody (10 dilutions starting at 500 nM). […] After incubation with the cells, an anti-human fluorescently labelled antibody was added to the cell media, allowed to incubate further, and the unbound antibody was washed off of the cells. Subsequently, the cells were subjected to FACS analysis to determine antibody binding to the cells. The results were fitted to a sigmoidal titration curve. Using a nonlinear regression model, the EC₅₀ values for each antibody were calculated from the GeoMFI and MFI values using the log(agonist) versus response (four parameters) fitting on the data transformed according to X=Log[X] in GraphPad PRISM.

[5] = target: T3, mouse CD36 (on HEK 293 cells) (mouse, UniProt Q08857 1-472); assay: as above
T3 construct: also called Murine CD36
T3 sequence (Q08857 whole entry): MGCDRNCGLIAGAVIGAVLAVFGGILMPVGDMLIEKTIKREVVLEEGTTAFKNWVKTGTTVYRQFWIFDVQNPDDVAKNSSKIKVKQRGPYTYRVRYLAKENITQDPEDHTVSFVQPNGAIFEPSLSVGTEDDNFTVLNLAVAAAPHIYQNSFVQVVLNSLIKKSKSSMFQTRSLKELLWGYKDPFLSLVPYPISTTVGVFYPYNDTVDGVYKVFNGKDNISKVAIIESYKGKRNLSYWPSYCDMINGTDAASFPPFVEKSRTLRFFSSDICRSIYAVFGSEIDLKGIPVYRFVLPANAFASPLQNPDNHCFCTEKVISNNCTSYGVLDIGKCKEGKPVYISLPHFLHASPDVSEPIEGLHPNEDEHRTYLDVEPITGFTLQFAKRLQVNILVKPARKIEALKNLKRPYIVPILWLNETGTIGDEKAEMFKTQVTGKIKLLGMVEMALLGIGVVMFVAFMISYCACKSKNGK
Method: as §1

[6] = target: T1, human CD36 (on HEK 293 or SCC25 cells); assay: as above
Method: as §1

[7] = target: T1, human CD36 (on HEK 293 or SCC25 cells); assay: cell-based or functional assay; remark: listed apart in the source
[8] = target: T4, human CD36 (His-tagged) (human, UniProt P16671 30-439); assay: SPR (Biacore T200), His-captured CD36, bivalent analyte model
T4 construct: not shown: His tag
T4 sequence (P16671 30-439 limits assumed): as the sequence (P16671 30-439 limits assumed) above

[9] = target: T1, human CD36 (on HEK 293 or SCC25 cells); assay: FACS, SCC25 cells stably overexpressing human CD36
Method: as §1

[10] = target: T1, human CD36 (on HEK 293 or SCC25 cells); assay: FACS, HEK 293 cells transiently overexpressing human CD36
Method: After incubation with the cells, an anti-human fluorescently labelled antibody was added to the cell media, allowed to incubate further, and the unbound antibody was washed off of the cells. Subsequently, the cells were subjected to FACS analysis to determine antibody binding to the cells. The results were fitted to a sigmoidal titration curve. Using a nonlinear regression model, the EC₅₀ values for each antibody were calculated from the GeoMFI and MFI values using the log(agonist) versus response (four parameters) fitting on the data transformed according to X=Log[X] in GraphPad PRISM.
After transiently transfecting the HEK 293 cells with a CD36 expression construct, cells were treated with three-fold serial dilution of each candidate antibody (10 dilutions starting at 500 nM). […] Antibody binding to cells was measured by FACS as above.
Throughout, for Percent Fatty Acid Uptake Inhibition: test concentration or dose not given here.

T1 sequence (P16671 2-472 limits assumed): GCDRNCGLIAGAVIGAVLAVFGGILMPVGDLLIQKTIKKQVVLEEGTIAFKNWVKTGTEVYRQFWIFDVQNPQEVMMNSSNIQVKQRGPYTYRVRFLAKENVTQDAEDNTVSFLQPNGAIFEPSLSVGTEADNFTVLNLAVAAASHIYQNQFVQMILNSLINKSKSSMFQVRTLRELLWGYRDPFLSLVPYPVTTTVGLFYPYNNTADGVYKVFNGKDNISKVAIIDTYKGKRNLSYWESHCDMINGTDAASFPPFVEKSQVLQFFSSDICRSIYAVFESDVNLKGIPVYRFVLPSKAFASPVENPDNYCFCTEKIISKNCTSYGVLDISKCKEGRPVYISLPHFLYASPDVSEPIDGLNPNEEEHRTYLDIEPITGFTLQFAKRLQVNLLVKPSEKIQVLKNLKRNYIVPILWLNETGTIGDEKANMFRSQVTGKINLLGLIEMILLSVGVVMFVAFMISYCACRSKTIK

B1: 14G04 (antibody, human IgG1, V domains shown)
VH: QVQLQQSGAELVRSGASVRLSCTASGFNIKDYYIHWVKQRPEQGLEWIGWIDPENGDTEYAPRFQDKATMTADTSSNTAYLQLSSLTSEDTAVYYCNGWLLSGNGMDYWGQGTSVTVSS
VL: DIVMTQSHKFMSTSVGDRVSITCKASQDVGTAVAWYQQKPGQSPKLLIYWASTRHTGVPDRFTGSGSGTDFTLTISNVQSEDLADYFCQQYSSYPTFGGGTKLEIK
notes: Chimeric: mouse variable regions on human IgG1 LALA (L234A/L235A); also called 014G04
- IC50 of fatty acid uptake inhibition (BODIPY FL C16, HEK hCD36 cells) [1]: 0.13 nM
- IC50 of oxLDL uptake inhibition (DiI-oxLDL, SCC25 cells) [2]: 0.35 nM
- EC50 [3]: 0.31 nM
- EC50 [4]: 0.88 nM
- EC50 [5]: 1.57 nM
- EC50 [6]: 1.47 nM
- Percent Fatty Acid Uptake Inhibition [7]: 45.1%
- Kd [8]: 2.3 nM
- koff [8]: 0.0072 s⁻¹
- kon [8]: 3.1e+06 M⁻¹ s⁻¹
- EC50 [9]: 0.41 nM

B2: 18G04 (antibody, human IgG1, V domains shown)
VH: EVQLQQSGPELVKPGASVKISCETSGHTFTEYTMHWVKQSHGKSLEWIGGIYPNNGATKYNQKFKGKATLTVDKSSSTAYMELRSLTSEDSAVYYCARDRYDVWFAYWGQGTLVTVSA
VL: ETTVTQSPASLSMAIGEKVTIRCITSTDIDDDMNWYQQKPGEPPKLLISEGNTLRPGVPSRFSSSGYGTDFVFTIENLLSEDVADYYCLQSDNLPLTFGGGTKLEIK
notes: Chimeric: mouse variable regions on human IgG1 LALA (L234A/L235A); also called 018G04
- IC50 of fatty acid uptake inhibition (BODIPY FL C16, HEK hCD36 cells) [1]: 2.6 nM
- EC50 [3]: 15.6 nM
- EC50 [4]: 6.6 nM
- EC50 [5]: 14.7 nM

B3: 17G04 (antibody, human IgG1, V domains shown)
VH: EVQLQQSGPELVKPGASVKISCKTSGYTFTEYTMHWVKQSHGKSLEWIGGIYPYNGGTAYNQKFKNKATLTVDISSNTAYMALRSLASDDSAVYYCASDYFYGDGYPWFTYWGQGTLVTVSA
VL: B2 VL with M13V, I15T, K39R, K45N, L78T, L96F, G100S, K103R
notes: Chimeric: mouse variable regions on human IgG1 LALA (L234A/L235A)
- EC50 [3]: 0.52 nM
- EC50 [4]: 4.03 nM
- EC50 [5]: 9.31 nM
- EC50 [6]: 1.25 nM

B4: 7G04 (antibody, human IgG1, V domains shown)
VH: QVQMKESGAELVRPGASVKLSCKALGYTFTDYEIQWVKQTPVHGLEWIGGIHPGSSGIVYNQKFKGKATLTADKSSSTAYMELSSLTSEDSAVYYCTRGGGYDGAWFAYWGQGSLVTVSA
VL: B2 VL with L78M, L96F, G100S
notes: Chimeric: mouse variable regions on human IgG1 LALA (L234A/L235A); also called 07G04; 007G04
- IC50 of fatty acid uptake inhibition (BODIPY FL C16, HEK hCD36 cells) [1]: 1 nM
- IC50 of oxLDL uptake inhibition (DiI-oxLDL, SCC25 cells) [2]: 0.27 nM
- EC50 [3]: 0.95 nM
- EC50 [4]: 4.16 nM
- EC50 [5]: 3.73 nM
- EC50 [6]: 0.48 nM
- Percent Fatty Acid Uptake Inhibition [7]: 37.4%
- Kd [8]: 4.9 nM
- koff [8]: 0.0035 s⁻¹
- kon [8]: 710000 M⁻¹ s⁻¹
- EC50 [9]: 0.68 nM

B5: 9G04 (antibody, human IgG1, V domains shown)
VH: QVQLQQSGAELVRPGASVTLSCKASGYTFTDYEMHWVKQTPVHGLEWIGTVDPETGGTAFNQKFKDKASLTADKSSSTVYMELRSLTSEDSAVYYCSRGYGNYGAWFAYWGQGTLVTVSA
VL: B2 VL with M13V, I15T, L78M, L96F, G100S
notes: Chimeric: mouse variable regions on human IgG1 LALA (L234A/L235A); also called 09G04; 009G04
- IC50 of fatty acid uptake inhibition (BODIPY FL C16, HEK hCD36 cells) [1]: 170 nM
- EC50 [3]: 2.06 nM
- EC50 [4]: 13.9 nM
- EC50 [5]: 12 nM
- EC50 [6]: 0.5 nM
- Percent Fatty Acid Uptake Inhibition [7]: 41.1%
- EC50 [9]: 0.41 nM

B6: 5G04 (antibody, human IgG1, V domains shown)
VH: QVQLQQSGAELVMPGASVKMSCKASGYTFTDYWMHWVKQRPGQGLEWIGAIDTSDSYTSYNQKFKGKATLTVDESSSTAYMQLSSLTSEDSAVYYCARDYYGSSTAWFAYWGQGTLVTVSA
VL: B2 VL with E76D, L78M, L96F, G100S
notes: Chimeric: mouse variable regions on human IgG1 LALA (L234A/L235A); also called 05G04; 005G04
- IC50 of fatty acid uptake inhibition (BODIPY FL C16, HEK hCD36 cells) [1]: > 1000 nM
- EC50 [3]: 0.02 nM
- EC50 [4]: 2.43 nM
- EC50 [5]: 5.03 nM

B7: 12G04 (antibody, human IgG1, V domains shown)
VH: EVQLVESGGGLVQPGESLKLSCESNEYEFPSHDMSWVRKTPEKRLELVAAINSDGGYTYYPDTMERRFIISRDNTKKTLYLQMSSLRSEDTALYYCARHGYDYDEEGAWFAYWGQGTLVTVSA
VL: B2 VL with S65T, T74S, L78M, L96F, G100S
notes: Chimeric: mouse variable regions on human IgG1 LALA (L234A/L235A); also called 012G04
- IC50 of fatty acid uptake inhibition (BODIPY FL C16, HEK hCD36 cells) [1]: 3.9 nM
- EC50 [3]: 0.78 nM
- EC50 [4]: 0.67 nM
- EC50 [5]: 1.2 nM
- EC50 [6]: 0.31 nM
- Percent Fatty Acid Uptake Inhibition [7]: 43.8%
- EC50 [9]: 0.39 nM

B9: 11G06 (antibody, human IgG1, V domains shown)
VH: EVQLQQSGAELVRPGASVTLSCKASGYRFSDYEMQWVKQTPVHGLEWIGGIDPETGGIAYNQKFKVKATLTADKSSSTAFMELRSLTSEDSAVYYCTRKLDFDYWGQGTTLTVSS
VL: B2 VL with M13V, I15T, L78M, G100A, I106L
- EC50 [10]: 0.76 nM

B10: 21G04 (antibody, human IgG1, V domains shown)
VH: QVQLQQSGAELVKPGASVKLSCKASGYTFTSYWMHWVKQRPGQGLEWIGEIDPSDSHTNYNQKFKGKATLTVDKSSSTAYMQLSSLTSEDSAVYYCAPIYYGLDNWGQGTTLTVSS
VL: ETTVTQSQKFMSTSVGDRVSVTCKASQNVGTNVAWYQQKPGQSPKALIYSASYRYSGVPDRFTGSGSGTDFTLTISNVQSEDLAEYFCQQYNSYPFTFGSGTKLEIK
notes: as for B3
- EC50 [3]: 0.45 nM
- EC50 [4]: 6.38 nM
- EC50 [6]: 0.36 nM

B15: 10G04 (antibody, human IgG1, V domains shown)
VH: DVQLQESGPELVKPGASVKISCKASGYTFTDYNMHWVKQSHGKSLEWIGYIYPYNGGTGYNQKFKSKATLTVDNSSSTAYMELRSLTSEDSAVYYCARDGGYDVYFDYWGQGTTLTVSS
VL: DVVMTQTPLSLPVSLGDQASISCRSSQSLVHSNGNTYLHWYLQKPGQSPKLLIYKVSNRFSGVPDRFSGSGSGTDFTLKISRVEAEDLGVYYCFQGSHVPWTFGGGTKLEIK
notes: Chimeric: mouse variable regions on human IgG1 LALA (L234A/L235A); also called 010G04
- IC50 of fatty acid uptake inhibition (BODIPY FL C16, HEK hCD36 cells) [1]: 33 nM
- EC50 [4]: 1.48 nM
- EC50 [5]: 16 nM
- EC50 [6]: 0.77 nM
- EC50 [9]: 3.3 nM

The remaining lines, values ahead:

- IC50 of fatty acid uptake inhibition (BODIPY FL C16, HEK hCD36 cells) [1]: 0.09 nM
- IC50 of oxLDL uptake inhibition (DiI-oxLDL, SCC25 cells) [2]: 1.67 nM
- EC50 [3]: 4.69 nM
- EC50 [4]: 7.77 nM
- EC50 [5]: 8.5 nM
- EC50 [6]: 0.6 nM
- Percent Fatty Acid Uptake Inhibition [7]: 39.7%
- Kd [8]: 14 nM
- koff [8]: 0.013 s⁻¹
- kon [8]: 870000 M⁻¹ s⁻¹
- EC50 [9]: 0.95 nM
B8: 28G04 (antibody, human IgG1, V domains shown)
VH: EVQLQQSGPELVKPGASVKISCKTSGYTFTEYTIHWVKQSHGKSLEWIGGIIPNNGGSSHKQNFKDKATLTVDKSSSTAYMELRSLTSEDSAVYYCARAGDYAFDYWGQGTTLTVSS
VL: B2 VL with L78M, D92G, N93T, L96F, G100S
notes: Chimeric: mouse variable regions on human IgG1 LALA (L234A/L235A); also called 028G04

- EC50 [3]: 0.29 nM
- EC50 [4]: 2.19 nM
- EC50 [6]: 0.74 nM
B11: 25G04 (antibody, human IgG1, V domains shown)
VH: B10 VH with Q1E, T58A
VL: B10 VL with E1D, T2I, T3V, V4L, S80P, F96L, S100G
notes: as for B3

- EC50 [3]: 0.53 nM
- EC50 [4]: 1.68 nM
- EC50 [6]: 1.25 nM
B12: 22G04 (antibody, human IgG1, V domains shown)
VH: B10 VH with S7P, T58A, Y100H
VL: B10 VL with E1D, T2I, T3V, V4L, F96L, S100A, I106L
notes: as for B3

- IC50 of fatty acid uptake inhibition (BODIPY FL C16, HEK hCD36 cells) [1]: 1 nM
- EC50 [3]: 0.28 nM
- EC50 [4]: 1.69 nM
- EC50 [6]: 0.3 nM
B13: 23G04 (antibody, human IgG1, V domains shown)
VH: B10 VH with S7P, A9T
VL: B10 VL with E1D, T2I, T3V, V4L, F96Y, S100G
notes: Chimeric: mouse variable regions on human IgG1 LALA (L234A/L235A); also called 023G04

- EC50 [3]: 0.29 nM
- EC50 [4]: 0.81 nM
- EC50 [6]: 0.26 nM
B14: 24G04 (antibody, human IgG1, V domains shown)
VH: B10 VH with T58A
VL: DIVMTQSQKFLSTSVGDRVSVTCKASQNVGTNVAWYQQKPGQSPKVLIYSASYRYSGVPDRFTGSGSGTDFTLTVSNVQSEDLAEYFCQQYNNYPLTFGAGTKLELK
notes: as for B3

- IC50 of fatty acid uptake inhibition (BODIPY FL C16, HEK hCD36 cells) [1]: 42 nM
- EC50 [3]: 1.46 nM
- EC50 [4]: 6.52 nM
- EC50 [5]: 5.14 nM
- EC50 [6]: 0.94 nM
- EC50 [9]: 1.88 nM
B16: 32G04 (antibody, human IgG1, V domains shown)
VH: EEKLEESGGGLVQPGGSMKLSCVASGFTFSNYWMNWVRQSPEKGLEWVAEIRLKSNNYATHYAESVKGRFTISRDDSKSSVYLQMNNLRAEDTGIYYCTPLLLRWGQGTTLTVSS
VL: ENVLTQSPAIMSASPGEKVTMTCRASSSLSSTYLHWYQQKSGASPKLWIYSTSNLASGVPARFSGSGSGTSYSLTISSVEAEDAATYYCQQYSGYPLTFGSGTKLEIK
notes: Chimeric: mouse variable regions on human IgG1 LALA (L234A/L235A); also called 032G04
